T1: coreROQ (Roquin, murine/human) (Mus musculus, UniProt Q4VGL6 171-326)
T1 sequence: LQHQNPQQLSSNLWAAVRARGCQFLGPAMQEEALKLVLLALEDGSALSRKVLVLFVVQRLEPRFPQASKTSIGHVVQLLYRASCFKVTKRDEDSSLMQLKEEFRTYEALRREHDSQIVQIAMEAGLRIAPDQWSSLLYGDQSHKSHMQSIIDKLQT

T2: extROQ (Roquin, murine/human) (Mus musculus, UniProt Q4VGL6 89-404)
T2 sequence: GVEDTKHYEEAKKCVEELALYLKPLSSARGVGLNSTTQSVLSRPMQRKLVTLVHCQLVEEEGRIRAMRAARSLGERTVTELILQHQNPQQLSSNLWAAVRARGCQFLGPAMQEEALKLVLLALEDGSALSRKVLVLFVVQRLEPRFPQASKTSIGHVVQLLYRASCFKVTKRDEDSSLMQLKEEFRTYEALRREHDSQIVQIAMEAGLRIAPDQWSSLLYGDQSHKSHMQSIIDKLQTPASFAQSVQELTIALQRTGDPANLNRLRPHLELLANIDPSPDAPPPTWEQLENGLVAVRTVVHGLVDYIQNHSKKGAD

One series has as its target T1, coreROQ (Roquin, murine/human). In words: EMSA. (Mobility shift assays separate free from complexed probe on a gel.)
The molecule GUCCCCUCUGCGCCGUUUUAGGCGUUUCUGGGCUGGC (structured_RNA) [EL (elephant Ox40 ADE)] had a Kd of 534 ± 366 nM.

The molecule GGCCAUCUGCACCGUUCUAGGUGCCGAACUGGCU (structured_RNA) [HS 3'bulge] registered a Kd of 293 ± 149 nM.

GCCUGCCAGUCCACACCGUUCUAGGUGCUGGACCCUGCUGGCUCUGGGC (structured_RNA) [MM 3'bulge] gave a Kd of 241 ± 15.6 nM.

As to GGCCAACUCUGCACCGUUCUAGGUGCCGAUGGCU (structured_RNA) [HS (human Ox40 ADE wt)], the affinity, expressed as Kd, was 295 ± 29.6 nM.

Take GCCCUGUGCCGUUUUAGGCGCUCCUGGGC (structured_RNA) [DK (dolphin/killer whale Ox40 ADE)]: binding was characterised by a dissociation constant (Kd) of 480 ± 24.7 nM.

Turning to GCACCCUCCCACACCGUUUUAGGUGUUCUGGGUG (structured_RNA) [HE (hedgehog Ox40 ADE)], the Kd is 318 ± 17.2 nM.

In the case of GCCUGCCAGUCCACACCGUUCUAGGUGCUGGGCUGGCUCUGGGC (structured_RNA) [delta-bulge], the affinity, expressed as Kd, was 299 ± 41.6 nM.

For the molecule GCCUGUAAGUACCCUCCACACCGUUCUAGGUGCUGGGCUUACUCUGGGC (structured_RNA) [dstem1], the dissociation constant (Kd) was found to be 381 ± 94.8 nM.

As to GCCUGCCAGUACCCUCCACACCGUUCUAGGUGCUGGGCUGGCUCUGGGC (structured_RNA) [MM (murine Ox40 ADE wt)], binding was characterised by a dissociation constant (Kd) of 308 ± 57.2 nM.

In the case of GCCUGUAAGUACCCUCUACACCGUUCUAGGUGCUAGGCUUACUCUGGGC (structured_RNA) [dstem2], binding was put at a Kd of 451 ± 46.9 nM.

The molecule GGCGAACAGUGCAGCGUUCUAGCUGCCCUUCGCU (structured_RNA) [HS low pur.] gave a dissociation constant (Kd) of 432 ± 62.6 nM.

A further series deals with T2, extROQ (Roquin, murine/human). The series is described as follows: EMSA.
As to GUCCCCUCUGCGCCGUUUUAGGCGUUUCUGGGCUGGC (structured_RNA) [EL (elephant Ox40 ADE)], the Kd was 778 ± 157 nM.

For GCCGAGCCUGAGUUUAUACAGUCCUUUGUGC (structured_RNA) [CH (chicken putative ADE)], binding was characterised by a dissociation constant (Kd) of 4460 ± 717 nM.

The molecule GGCCAUCUGCACCGUUCUAGGUGCCGAACUGGCU (structured_RNA) [HS 3'bulge] showed a dissociation constant Kd of 475 ± 62.6 nM. This Kd is about 9.4-fold lower than that of the molecule before.

As to GCCUGCCAGUCCACACCGUUCUAGGUGCUGGACCCUGCUGGCUCUGGGC (structured_RNA) [MM 3'bulge], the dissociation constant Kd came to 525 ± 60.1 nM.

GGCCAACUCUGCACCGUUCUAGGUGCCGAUGGCU (structured_RNA) [HS (human Ox40 ADE wt)] returned a Kd of 386 ± 63.7 nM.

In turn, GCCCUGUGCCGUUUUAGGCGCUCCUGGGC (structured_RNA) [DK (dolphin/killer whale Ox40 ADE)] had a Kd of 847 ± 77.4 nM.

For the molecule GCACCCUCCCACACCGUUUUAGGUGUUCUGGGUG (structured_RNA) [HE (hedgehog Ox40 ADE)], the Kd turned out to be 642 ± 119 nM.

For the molecule GCCUGCCAGUCCACACCGUUCUAGGUGCUGGGCUGGCUCUGGGC (structured_RNA) [delta-bulge], the Kd was 479 ± 188 nM.

Consider GCCUGUAAGUACCCUCCACACCGUUCUAGGUGCUGGGCUUACUCUGGGC (structured_RNA) [dstem1], for which the dissociation constant Kd was 1040 ± 139 nM.

On to GCCUGCCAGUACCCUCCACACCGUUCUAGGUGCUGGGCUGGCUCUGGGC (structured_RNA) [MM (murine Ox40 ADE wt)], for which the Kd was determined as 323 ± 139 nM.

The molecule GCCUGUAAGUACCCUCUACACCGUUCUAGGUGCUAGGCUUACUCUGGGC (structured_RNA) [dstem2] yielded a Kd of 978 ± 76.9 nM.

GCCUGCCAGUACCCUCCAUAAAGUUCUAUUUACUGGGCUGGCUCUGGGC (structured_RNA) [dapical]: the Kd amounted to 488 ± 373 nM.

Turning to GGCGAACAGUGCAGCGUUCUAGCUGCCCUUCGCU (structured_RNA) [HS low pur.], the Kd was determined as 673 ± 65.2 nM.

GGUGUGUUUAUUUCAGGAGACA (structured_RNA) [LI (lizard putative ADE)]: the Kd was found to be 1840 ± 403 nM.

The next series addresses T1, coreROQ (Roquin, murine/human). In words: EMSA. The source holds these as a separate data set.
For the molecule GGCCAGGACGCAGUAUUACUCUCGGGUC (structured_RNA) [OP (opossum ADE-like)], the binding result is on record as “no binding”.

Regarding GCCUGCCAGUACCCUCCAUAAAGUUCUAUUUACUGGGCUGGCUCUGGGC (structured_RNA) [dapical], the binding result was “no binding”.

In general, Kd refers to a measure of binding affinity in units of concentration. Low readings indicate tighter binding, high ones weaker binding.

(Values after PMC11730611.)
